Experiments:
[1] = target: Neurotoxin light chain (L-chain) (Clostridium botulinum, UniProt P0DPI0 2-448); test: ELISA, IgG on immobilised L-chain
[2] = target: neuronal cell binding domain of the heavy chain C-terminal end (Hc, E. coli recombinant protein) (Clostridium botulinum, UniProt P0DPI0 871-1296); test: immunoblotting of Hc after SDS-PAGE (denatured antigen)
[3] = target: Neurotoxin heavy chain (H-chain) (Clostridium botulinum, UniProt P0DPI0 449-1296); test: ELISA, IgG on immobilised H-chain

Binder | binding result [1] | binding result [2] | binding result [3]
NT-539 IgG type antibody (antibody, V domains shown) VH: not shown VL: DIQMTQSPSAVSASLGDRVTITCRASQGINPFLAWFQQKPGKVPERLIYTASRLQSGVPSRFSGSGTGTEFNLTISSLHPEDFATYYCLQHKHYPWTFGQGTKVERK | no binding (tested: 10 µg/ml) | no binding (tested: 50 µg/ml) | 
NT-221 IgG type antibody (antibody, V domains shown) VH: EVQLVESGPTLVKPTQTLTLTCTFSGFSLRTSGVAVGWIRQPPGKALEWLALIYWDDDKRYSPSLKSRLTITKDTSKNQVVLTMTNMDPVDTATYYCAHNTGTDLYFDWAFDYWGQGTLVTVSS VL: QSVLTQPPSVSGAPGQRVTISCTGSSSNIGAGYDVHWYQQLPGTAPKLLIYGNSNRPSGVPDRFSGSKSGTSASLAITGLQAEDEADYYCQSYDSSLSGSVFGGGTKLTVLG | no binding (tested: 1 µg/ml) | no binding (tested: 50 µg/ml) | no binding (tested: 1 µg/ml)
NT-320 IgG type antibody (antibody, V domains shown) VH: EVQLVESGGGVVQPGKSLRLSCAASGFTFSSYGMHWVRQAPGKGLEWVAVISYPGTNEYYTDSVKGRFTISRDNSKNTLYLQMNSLRAEDTAVYYCARGDIHSGYSFGGGDYGLDVWGQGTTVTVSS VL: DIQMTQSPSTLSASVGDRVTITCRASQSISGWLAWYQQKPGKAPKLLMYKASSLESGVPSRFSGSGSGTEFTLTISSLQPDDFATYYCQQYNNFPWTFGQGTKVEFK |  | no binding (tested: 50 µg/ml) | 
BT-175 IgG type antibody (antibody, V domains shown) VH: QITLKESGPTLVKPTQTLTLTCTFSGFSLRTSGVGVGWIRQPPGKAPEWLALIYWDGDKRFSPSLKSRLTINKDISKNQVVLTLTNLDPVDTGTYYCAHSFYHGSQSPGWFDPWGQGTLVTVSS VL: QSVLTQPPSVSAAPGQKVTISCSGSSSNIGNNYVSWYQQLPGTAPKLLIYDNNKRPSGIPDRFSGSKSGTSATLGITGLQTGDEADYYCGTWDSSLSAVFGGGTKLTVLG |  | no binding (tested: 50 µg/ml) | no binding (tested: 1 µg/ml)
BT-015 IgG type antibody (antibody, V domains shown) VH: QVQLQQSGAEVKKPGASVKVACKASRYNFSAYYMHWVRQAPGQGPEWMGWINPHSGVTTYAQKFQGRVTMTRDTSIGTAYMELSRLRSDDTALYYCARGFGSSCSDTSCSFSGLDVWGQGTTVTVSS VL: QSALTQPASVSGSPGQSITISCTGTSSDVGGYDYVSWYQQHPGEAPKLLIYDVTNRPSGVSSRFSGSKSGNTASLTISGLQPEDEADYYCTSYTSSVTYVFGSGTTLTVLS | no binding (tested: 1 µg/ml) | no binding (tested: 50 µg/ml) | 

From US20110014211A1 (INSTITUTE FOR ANTIBODIES, published 2011)
